Test results: patent US20040152079A1

Target: PMN receptor for mini TyrRS (on human PMNs) (human)
Experiment: competition with ^125I-mini TyrRS on human PMNs (FIG. 10)

## S. cerevisiae TyrRS (from UniProt P36421 1-394) (enzyme)
  fold of the dissociation constant against human mini TyrRS: < 200 fold
